Laboratory results as given in article PMC5490261, “The structural and functional characterization of human RecQ4 reveals insights into its helicase mechanism”.

Legend:
Details in all cases: protein: recombinant; tags: Trx-His6 removed by 3C protease; label: 5' Cy3
RecQ4 427-1208 W613L = target: T1, RecQ4 427-1208 W613L (Homo sapiens, UniProt O94761 427-1208, W613L); experiment: fluorescence polarization; WT-like affinity; figure values not assignable from text layer; 20 mM HEPES pH 8.0, 10 mM NaCl, 5% glycerol, 1 mM MgCl2, 0.5 mM TCEP, 0.5 nM Cy3-ssDNA; temperature not stated
T1 sequence: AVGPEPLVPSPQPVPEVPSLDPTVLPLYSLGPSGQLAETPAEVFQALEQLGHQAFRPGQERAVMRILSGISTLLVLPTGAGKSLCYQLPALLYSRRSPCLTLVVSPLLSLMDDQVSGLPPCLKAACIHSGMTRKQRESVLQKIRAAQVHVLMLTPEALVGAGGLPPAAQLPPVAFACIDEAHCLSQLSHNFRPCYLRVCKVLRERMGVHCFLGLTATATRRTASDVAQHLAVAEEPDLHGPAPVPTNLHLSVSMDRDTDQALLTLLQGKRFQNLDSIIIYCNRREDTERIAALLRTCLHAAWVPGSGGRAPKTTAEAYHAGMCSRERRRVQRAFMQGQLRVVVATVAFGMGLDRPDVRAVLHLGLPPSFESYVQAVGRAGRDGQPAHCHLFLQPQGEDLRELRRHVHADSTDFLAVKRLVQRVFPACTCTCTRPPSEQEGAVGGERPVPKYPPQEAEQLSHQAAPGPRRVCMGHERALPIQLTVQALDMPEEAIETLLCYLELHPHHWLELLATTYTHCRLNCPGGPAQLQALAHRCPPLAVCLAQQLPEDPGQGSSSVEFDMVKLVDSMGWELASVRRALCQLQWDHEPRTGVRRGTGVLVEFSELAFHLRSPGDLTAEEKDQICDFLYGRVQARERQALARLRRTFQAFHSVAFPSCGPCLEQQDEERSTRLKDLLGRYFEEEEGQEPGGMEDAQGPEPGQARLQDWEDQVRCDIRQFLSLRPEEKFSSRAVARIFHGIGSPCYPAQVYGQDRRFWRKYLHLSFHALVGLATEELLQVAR

RecQ4 427-1208 R618L = target: T2, RecQ4 427-1208 R618L (Homo sapiens, UniProt O94761 427-1208, R618L); experiment: as above
T2 sequence: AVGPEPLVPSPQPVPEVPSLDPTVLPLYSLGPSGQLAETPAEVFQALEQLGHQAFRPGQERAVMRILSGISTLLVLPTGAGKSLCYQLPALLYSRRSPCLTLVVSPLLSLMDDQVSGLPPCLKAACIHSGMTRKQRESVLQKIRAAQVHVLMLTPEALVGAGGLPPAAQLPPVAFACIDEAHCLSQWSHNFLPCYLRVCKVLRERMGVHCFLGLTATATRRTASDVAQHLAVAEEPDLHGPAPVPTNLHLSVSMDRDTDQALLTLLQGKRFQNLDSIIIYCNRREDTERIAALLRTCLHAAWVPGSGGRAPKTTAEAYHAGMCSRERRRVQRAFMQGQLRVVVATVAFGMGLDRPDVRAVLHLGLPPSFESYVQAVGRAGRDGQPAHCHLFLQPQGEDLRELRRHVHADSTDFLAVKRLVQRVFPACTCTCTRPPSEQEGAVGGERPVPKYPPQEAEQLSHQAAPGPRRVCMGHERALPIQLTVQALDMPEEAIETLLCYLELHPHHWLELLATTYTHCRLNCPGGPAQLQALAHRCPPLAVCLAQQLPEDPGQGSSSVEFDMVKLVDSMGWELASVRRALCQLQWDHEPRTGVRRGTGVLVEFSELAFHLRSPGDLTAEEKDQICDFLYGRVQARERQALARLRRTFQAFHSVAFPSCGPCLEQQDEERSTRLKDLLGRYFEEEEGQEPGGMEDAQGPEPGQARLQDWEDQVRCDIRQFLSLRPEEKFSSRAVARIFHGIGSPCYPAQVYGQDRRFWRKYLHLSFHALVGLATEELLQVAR

RecQ4 427-1208 K1048A = target: T3, RecQ4 427-1208 K1048A (Homo sapiens, UniProt O94761 427-1208, K1048A); experiment: fluorescence polarization; WT-like, low nM apparent Kd; 20 mM HEPES pH 8.0, 10 mM NaCl, 5% glycerol, 1 mM MgCl2, 0.5 mM TCEP, 0.5 nM Cy3-ssDNA; temperature not stated
T3 sequence: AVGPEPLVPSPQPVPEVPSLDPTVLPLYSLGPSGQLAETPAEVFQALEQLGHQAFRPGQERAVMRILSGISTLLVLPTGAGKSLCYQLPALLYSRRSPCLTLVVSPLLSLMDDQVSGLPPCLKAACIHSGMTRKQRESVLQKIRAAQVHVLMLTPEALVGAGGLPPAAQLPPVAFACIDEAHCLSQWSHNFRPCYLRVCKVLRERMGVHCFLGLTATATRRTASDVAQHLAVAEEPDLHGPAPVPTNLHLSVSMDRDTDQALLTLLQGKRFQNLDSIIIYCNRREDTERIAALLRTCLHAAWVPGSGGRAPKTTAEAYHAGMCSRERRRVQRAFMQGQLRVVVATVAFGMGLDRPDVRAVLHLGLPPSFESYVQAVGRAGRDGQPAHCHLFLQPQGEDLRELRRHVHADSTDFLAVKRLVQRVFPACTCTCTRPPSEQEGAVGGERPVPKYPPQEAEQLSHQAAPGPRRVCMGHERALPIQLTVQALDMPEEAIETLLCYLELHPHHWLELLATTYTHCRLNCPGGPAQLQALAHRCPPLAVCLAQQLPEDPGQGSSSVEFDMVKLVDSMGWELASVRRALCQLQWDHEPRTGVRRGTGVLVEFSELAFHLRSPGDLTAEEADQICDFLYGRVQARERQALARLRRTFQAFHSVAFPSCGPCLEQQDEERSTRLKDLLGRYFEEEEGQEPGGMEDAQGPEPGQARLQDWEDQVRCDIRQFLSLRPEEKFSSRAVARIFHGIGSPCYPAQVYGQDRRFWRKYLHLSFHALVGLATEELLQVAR

Measured: binding result

CCATTCCACCCTCTATTTTTTTTTTTTTTT (ssDNA) [T3-Cy3]
binds: RecQ4 427-1208 W613L | RecQ4 427-1208 R618L | RecQ4 427-1208 K1048A
